Measurements published in patent US20250215104A1 (WALDEN BIOSCIENCES, published 2025).
Residue numbers refer to the chain shown, from its start.

B1: suPAR_DB03_D01 (scFv, V domains shown)
VH: QVQLVQSGAEVKKPGASVKVSCKASGFNIKDYYIHWVRQAPGQGLEWMGWMDPNSGGTNYAQKFQGRVTMTRDTSTSTVYMELSSLRSEDTAVYYCARGYDVDWFVYWGQGTLVTVSS
VL: DIQMTQSPSSLSASVGDRVTITCSARSSVSYMYWYQQKPGKAPKLLIYRTSNLASGVPSRFSGSGSGTDFTLTISSLQPEDFATYYCQQYHSYPPTFGGGTKVEIK
notes: screened as scFv
B2: suPAR_DB03_D08 (scFv, V domains shown)
VH: QVQLVQSGAEVKKPGASVKVSCKASGYTFTGYYMHWVRQAPGQGLEWMGWIDPENGSTIYDQKFQGRVTMTRDTSTSTVYMELSSLRSEDTAVYYCARGYDVDWFVYWGQGTLVTVSS
VL: B1 VL with S27Q
notes: screened as scFv
B3: suPAR_DB03_D07 (scFv, V domains shown)
VH: B2 VH with Y27N, G31N, M34V, E54S, S57N
VL: B1 VL
notes: screened as scFv
B4: suPAR_DB03_D03 (scFv, V domains shown)
VH: B2 VH with M34I, S57N, D61A
VL: B1 VL with S24R, S27Q
notes: screened as scFv
B5: suPAR_DB03_D02 (scFv, V domains shown)
VH: B2 VH with G31R, M34L, S57N, D61A
VL: B1 VL
notes: screened as scFv
B6: suPAR_DB03_D10 (scFv, V domains shown)
VH: B2 VH with G31S, S57N, D61A
VL: B1 VL with A54Q
notes: screened as scFv
B7: suPAR_DB03_D05 (scFv, V domains shown)
VH: B2 VH with Y27D, T28N, G31T, S57N, D61A
VL: B1 VL
notes: screened as scFv
B8: suPAR_DB03_E02 (scFv, V domains shown)
VH: B2 VH with T28N, M34I, P53H, S57N, D61A
VL: B1 VL
notes: screened as scFv
B9: suPAR_DB03_E08 (scFv, V domains shown)
VH: B2 VH with G31H, N55G
VL: B1 VL with S24R, R26S
notes: screened as scFv
B10: suPAR_DB03_E04 (scFv, V domains shown)
VH: B2 VH with Y32H
VL: B1 VL
notes: screened as scFv
B11: suPAR_DB03_D12 (scFv, V domains shown)
VH: B2 VH with T30S, G31N, S57N, D61A
VL: B1 VL with S24R, A54Q
notes: screened as scFv
B12: suPAR_DB03_D04 (scFv, V domains shown)
VH: B2 VH with G31N
VL: B1 VL with Y90S
notes: screened as scFv
B13: suPAR_DB03_E06 (scFv, V domains shown)
VH: B2 VH with Y32Q, M34V, P53H, S57N
VL: B1 VL
notes: screened as scFv
B14: suPAR_DB03_D06 (scFv, V domains shown)
VH: B2 VH with T28S, G31N, P53H, S57N, I59S, D61A
VL: B1 VL
notes: screened as scFv
B15: suPAR_DB03_E03 (scFv, V domains shown)
VH: B2 VH with F29V, G31N, P53H, S57N
VL: B1 VL with S24R
notes: screened as scFv
B16: suPAR_DB03_D09 (scFv, V domains shown)
VH: B2 VH with P53H, D61A
VL: B1 VL with A54Q
notes: screened as scFv

The binders below were run against T1, human soluble urokinase plasminogen activator receptor (hsuPAR) (human, UniProt Q03405 23-303, limits assumed) (assay: BLI (Octet) off-rate screen of scFv clones).
T1 construct: Target antigen of the off-rate screen; also called human suPAR; rhuPAR-His
T1 sequence (Q03405 23-303 limits assumed): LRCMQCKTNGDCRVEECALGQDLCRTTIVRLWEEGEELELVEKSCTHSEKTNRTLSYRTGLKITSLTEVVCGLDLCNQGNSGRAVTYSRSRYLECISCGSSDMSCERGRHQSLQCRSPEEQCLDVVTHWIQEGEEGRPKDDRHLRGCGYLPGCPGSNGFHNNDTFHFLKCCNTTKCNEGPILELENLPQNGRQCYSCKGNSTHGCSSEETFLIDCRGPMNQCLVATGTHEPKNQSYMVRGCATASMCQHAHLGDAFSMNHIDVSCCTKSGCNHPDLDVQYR
In the case of B1, the koff is reported as 0.00416 s⁻¹.
B2 was tested, and the koff was 0.00458 s⁻¹.
B3 showed a koff of 0.00308 s⁻¹.
In the case of B4, the koff is reported as 0.00258 s⁻¹.
Work on B5 yielded a koff of 0.00755 s⁻¹.
B6 showed a koff of 0.00527 s⁻¹.
For B7, the koff was 0.00482 s⁻¹.
B8 showed a koff of 0.00358 s⁻¹.
For B9, the koff was 0.005 s⁻¹.
B10 showed a koff of 0.00556 s⁻¹.
In the case of B11, the koff is reported as 0.0057 s⁻¹.
Binder B12 has a koff of 0.00325 s⁻¹.
With B13 the koff was 0.0044 s⁻¹.
B14 showed a koff of 0.00295 s⁻¹.
For B15, the koff was 0.00231 s⁻¹.
Binder B16 has a koff of 0.000746 s⁻¹.

The binders below were run against T2, cynomolgus suPAR (cynomolgus, UniProt Q9GK78 23-303, limits assumed) (assay: BLI (Octet) off-rate screen of scFv clones).
T2 construct: Target antigen of the off-rate screen; also called cynomolgus uPAR; cynoPLAUR-His
T2 sequence (Q9GK78 23-303 limits assumed): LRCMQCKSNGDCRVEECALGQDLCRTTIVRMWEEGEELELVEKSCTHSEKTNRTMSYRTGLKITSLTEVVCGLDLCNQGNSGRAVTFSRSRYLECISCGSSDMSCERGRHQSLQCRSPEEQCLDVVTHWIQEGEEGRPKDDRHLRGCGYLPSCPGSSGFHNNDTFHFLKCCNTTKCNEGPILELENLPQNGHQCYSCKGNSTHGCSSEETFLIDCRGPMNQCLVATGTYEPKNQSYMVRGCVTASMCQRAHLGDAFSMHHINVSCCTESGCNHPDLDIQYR
B1 gave a koff of 8.49e-05 s⁻¹.
B2 was tested, and the koff was 0.000482 s⁻¹.
With B3 the koff was 0.000163 s⁻¹.
With B4 the koff was 0.000156 s⁻¹.
In the case of B5, the koff is reported as 0.000241 s⁻¹.
With B6 the koff was 0.000286 s⁻¹.
B7 gave a koff of 3.55e-05 s⁻¹.
With B8 the koff was 0.000258 s⁻¹.
In the case of B9, the koff is reported as 0.00025 s⁻¹.
B10 showed a koff of 0.000669 s⁻¹.
B11 gave a koff of 0.000263 s⁻¹.
Work on B12 yielded a koff of 0.0059 s⁻¹.
For B13, the koff was 7.36e-05 s⁻¹.
B14 gave a koff of 0.000388 s⁻¹.
For B15, the koff was 0.000132 s⁻¹.
B16 was tested, and the koff was 0.000508 s⁻¹.
